Data from paper PMC3339974 (The Journal of Biological Chemistry, 2012).

Tests used:
[1] = target: soluble mouse CD3ϵ ectodomain homodimer (mouse) (UniProt P22646)
[2] = target: T1, soluble mouse CD3ϵ ectodomain homodimer (Mus musculus (strain )); assay: crystal structure
T1 chain: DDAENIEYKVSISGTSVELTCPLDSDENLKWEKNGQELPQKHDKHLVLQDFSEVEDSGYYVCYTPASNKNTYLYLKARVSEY

Sequence of soluble mouse CD3ϵ ectodomain homodimer (P22646 23-108): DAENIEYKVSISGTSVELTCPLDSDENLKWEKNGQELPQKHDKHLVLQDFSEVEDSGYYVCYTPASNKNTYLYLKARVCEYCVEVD

Row | stoichiometry N [1] | binding result [2] | Molecule
1 | 2 | – | soluble mouse CD3ϵ ectodomain homodimer (from UniProt P22646 23-108) (domain or fragment)
2 | – | binds | 2C11 Fab (Fab, V domains shown) VH: EVQLVESGGGLVQPGKSLKLSCEASGFTFSGYGMHWVRQAPGRGLESVAYITSSSINIKYADAVKGRFTVSRDNAKNLLFLQMNILKSEDTAMYYCARFDWDKNYWGQGTMVTVSS VL: DIQMTQSPSSLPASLGDRVTINCQASQDISNYLNWYQQKPGKAPKLLIYYTNKLADGVPSRFSGSGSGRDSSFTISSLESEDIGSYYCQQYYNYPWTFGPGTKLEIK
